Results taken from patent publication US20120329717A1.

Tests used:
[1] = target: N-type VGCCs controlling excitatory synaptic transmission between primary afferents and dorsal horn (rat) (UniProt Q02294); experiment: cell-based or functional assay
[2] = target: N-type VGCCs in rat brain membranes (rat) (UniProt Q02294); experiment: displacement of 125I-GVIA from rat brain membranes
[3] = target: N-type VGCCs controlling excitatory synaptic transmission between primary afferents and dorsal horn (rat), Q02294; experiment: cell-based or functional assay
[4] = target: N-type VGCCs in rat brain membranes (rat), Q02294; experiment: displacement of 125I-GVIA from rat brain membranes
N-type VGCCs in rat brain membranes (rat), Q02294, sequence (Q02294 whole entry): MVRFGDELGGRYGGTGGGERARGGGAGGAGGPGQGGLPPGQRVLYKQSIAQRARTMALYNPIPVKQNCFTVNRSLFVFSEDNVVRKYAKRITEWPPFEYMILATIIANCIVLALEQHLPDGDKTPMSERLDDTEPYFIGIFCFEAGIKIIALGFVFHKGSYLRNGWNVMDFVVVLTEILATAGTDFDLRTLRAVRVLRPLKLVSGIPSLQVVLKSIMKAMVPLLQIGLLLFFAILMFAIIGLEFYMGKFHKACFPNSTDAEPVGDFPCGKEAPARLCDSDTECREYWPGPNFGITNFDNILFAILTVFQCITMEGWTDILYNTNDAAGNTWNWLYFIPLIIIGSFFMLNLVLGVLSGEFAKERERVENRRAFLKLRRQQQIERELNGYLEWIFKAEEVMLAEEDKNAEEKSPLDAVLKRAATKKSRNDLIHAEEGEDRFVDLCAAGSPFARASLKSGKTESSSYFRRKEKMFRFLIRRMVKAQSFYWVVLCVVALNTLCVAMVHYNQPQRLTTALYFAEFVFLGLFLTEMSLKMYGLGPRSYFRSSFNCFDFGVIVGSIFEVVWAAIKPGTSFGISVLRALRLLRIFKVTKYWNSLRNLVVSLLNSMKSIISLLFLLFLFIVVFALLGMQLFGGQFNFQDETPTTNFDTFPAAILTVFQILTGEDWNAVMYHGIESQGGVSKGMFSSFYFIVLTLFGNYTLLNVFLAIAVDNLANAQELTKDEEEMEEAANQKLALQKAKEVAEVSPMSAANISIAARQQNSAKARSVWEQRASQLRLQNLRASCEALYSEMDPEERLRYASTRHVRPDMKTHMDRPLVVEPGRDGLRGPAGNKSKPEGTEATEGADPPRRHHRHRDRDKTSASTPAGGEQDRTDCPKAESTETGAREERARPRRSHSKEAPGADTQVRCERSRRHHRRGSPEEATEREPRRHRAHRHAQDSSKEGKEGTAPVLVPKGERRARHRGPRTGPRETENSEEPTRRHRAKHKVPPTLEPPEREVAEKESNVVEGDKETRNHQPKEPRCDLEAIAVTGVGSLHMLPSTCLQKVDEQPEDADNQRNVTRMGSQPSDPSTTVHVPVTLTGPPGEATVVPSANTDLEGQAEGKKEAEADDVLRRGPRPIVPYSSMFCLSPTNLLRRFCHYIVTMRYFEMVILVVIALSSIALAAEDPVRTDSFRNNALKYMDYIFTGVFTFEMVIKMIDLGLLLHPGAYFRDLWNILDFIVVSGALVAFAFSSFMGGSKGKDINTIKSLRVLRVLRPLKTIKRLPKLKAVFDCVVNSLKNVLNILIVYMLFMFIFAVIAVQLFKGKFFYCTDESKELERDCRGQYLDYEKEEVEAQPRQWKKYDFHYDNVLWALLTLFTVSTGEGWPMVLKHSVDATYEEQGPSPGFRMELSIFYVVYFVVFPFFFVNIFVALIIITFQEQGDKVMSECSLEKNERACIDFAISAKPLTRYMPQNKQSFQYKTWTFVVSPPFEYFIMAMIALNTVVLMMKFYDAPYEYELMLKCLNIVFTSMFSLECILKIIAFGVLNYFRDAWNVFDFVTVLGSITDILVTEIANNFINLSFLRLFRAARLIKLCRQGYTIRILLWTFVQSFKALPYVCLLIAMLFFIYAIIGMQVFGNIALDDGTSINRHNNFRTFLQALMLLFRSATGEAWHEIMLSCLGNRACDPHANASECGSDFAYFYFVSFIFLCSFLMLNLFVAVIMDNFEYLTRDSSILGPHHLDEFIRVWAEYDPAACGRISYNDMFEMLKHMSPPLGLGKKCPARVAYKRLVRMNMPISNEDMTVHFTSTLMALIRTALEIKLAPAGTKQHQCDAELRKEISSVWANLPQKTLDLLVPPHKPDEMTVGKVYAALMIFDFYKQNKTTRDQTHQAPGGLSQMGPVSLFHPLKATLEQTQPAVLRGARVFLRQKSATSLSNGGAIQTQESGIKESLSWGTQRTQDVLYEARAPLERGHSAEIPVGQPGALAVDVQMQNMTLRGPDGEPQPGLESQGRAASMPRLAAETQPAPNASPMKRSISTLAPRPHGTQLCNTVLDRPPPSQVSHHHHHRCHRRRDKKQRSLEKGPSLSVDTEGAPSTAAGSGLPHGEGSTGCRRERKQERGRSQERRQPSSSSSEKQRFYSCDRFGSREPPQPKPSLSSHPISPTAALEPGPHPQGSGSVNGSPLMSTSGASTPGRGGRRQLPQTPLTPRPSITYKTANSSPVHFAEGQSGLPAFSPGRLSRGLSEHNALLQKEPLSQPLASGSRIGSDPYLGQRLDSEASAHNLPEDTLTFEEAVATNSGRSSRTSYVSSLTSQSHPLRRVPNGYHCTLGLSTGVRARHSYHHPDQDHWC

N-type VGCCs in rat brain membranes (rat), sequence (Q02294 whole entry): as above
N-type VGCCs controlling excitatory synaptic transmission between primary afferents and dorsal horn (rat), sequence (Q02294 whole entry): as above
N-type VGCCs controlling excitatory synaptic transmission between primary afferents and dorsal horn (rat), Q02294, sequence (Q02294 whole entry): as above

Row | Molecule | EPSC amplitude recovered 10-15 min after washout, percent of control [1] [%] | affinity [2] [µM] | pIC50 [2] [M] | EPSC amplitude recovered 10-15 min after washout, percent of control [3] [%] | affinity [4] [µM] | pIC50 [4] [M]
1 | ω-conotoxin CVIE (peptide) | 78 | 37 | 10.7 | – | – | –
2 | CKGKGASCRRTSYDCCTGSCRSGRC (modifications not checked) [ω-conotoxin CVIF] | – | – | – | 73 | 98 | 10.6
3 | CKSPGSSCSPTSYNCCRSCNPYTKRCY (modifications not checked) [ω-conotoxin GVIA, P01522 46-72] | – | – | – | – | 24 | 10.6
4 | CKSKGAKCSKLMYDCCSGSCSGTVGRC (modifications not checked) [ω-conotoxin CVID, P58920 46-72] | – | – | – | – | 12 | 11
